Data on one substance can be found in article PMC4075986.

This test deals with chicken pectoral skeletal muscle actin (F-actin) (chicken) (UniProt P68139). Put plainly: co-sedimentation.

With rat tropomyosin Tm5a (natural protein), the Ka worked out at 1.7e+06 M⁻¹.
